In patent US20210403527A1:
Each block holds one substance with its values, some of them ahead of it.

How the values were obtained:
[1] = target: NY-ESO-1 peptide on HLA-A*02:01 (human); assay: AP-1 luciferase reporter; Jurkat J.RT3.T3.5 with CD8A/B; HLA-A2+ 293T cells pulsed with 100 uM NY-ESO-1 peptide; full-length, on cells
[2] = target: composite TCR 001 (human variable domains, mouse constant domains) (mouse) (UniProt P01849); assay: Flow cytometry, dextramer against CD8a, sorted T cells expressing composite TCR 001 after 12 days of post-sort expansion, left panel
[3] = target: HLA-A2/NY-ESO-1 (157-165) complex on cells (human); assay: cell-based or functional assay

Chain of composite TCR 001 (human variable domains, mouse constant domains) (mouse) (P01849 other isoform, or with tags, fused parts or gaps, chain 1 of 2): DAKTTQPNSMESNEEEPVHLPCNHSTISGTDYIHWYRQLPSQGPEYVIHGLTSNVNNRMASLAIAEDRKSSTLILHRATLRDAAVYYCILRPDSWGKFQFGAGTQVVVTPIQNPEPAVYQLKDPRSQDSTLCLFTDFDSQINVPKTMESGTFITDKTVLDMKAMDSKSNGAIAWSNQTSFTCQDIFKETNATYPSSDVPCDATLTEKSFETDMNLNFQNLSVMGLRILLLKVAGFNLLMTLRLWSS
Chain of composite TCR 001 (human variable domains, mouse constant domains) (mouse) (P01852 other isoform, or with tags, fused parts or gaps, chain 2 of 2, further chain): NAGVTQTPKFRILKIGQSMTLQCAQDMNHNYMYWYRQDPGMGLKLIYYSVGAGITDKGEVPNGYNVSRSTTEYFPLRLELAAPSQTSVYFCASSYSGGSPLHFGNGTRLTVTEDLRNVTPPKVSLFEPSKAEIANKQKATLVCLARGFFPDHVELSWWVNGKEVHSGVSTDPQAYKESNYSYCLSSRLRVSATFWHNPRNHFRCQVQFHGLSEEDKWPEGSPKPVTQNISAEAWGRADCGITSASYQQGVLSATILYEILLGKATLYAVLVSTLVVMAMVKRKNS

- signal to noise ratio (RLU with peptide-pulsed APCs / RLU with non-pulsed APCs) [1]: 6.3
Substance: 1G4

- Dex+ CD8+ (share of cells in the gate) [2]: 0.52
Substance: Control Dextramer (peptide-MHC)

- Signal to Noise (S/N) ratio (RLU to peptide pulsed APCs divided by RLU to non-pulsed APCs), AP-1 luciferase reporter T cells [3]: 6.3
Substance: patient-derived NY-ESO-1 specific comparator TCR 1G4
